US20230039487A1 (SHENZHEN FEIPENG BIOLOGICAL THERAPY, published 2023)
Where a chain is given by its changes, count along the chain named.

T1: hBCMA ECD hFc (ACRO, BC7-H5254) (human, UniProt Q02223 1-54)
T1 construct: extracellular domain; Bought reagent (ACRO BC7-H5254); also called R0341; not shown: human Fc
T1 sequence (looked up): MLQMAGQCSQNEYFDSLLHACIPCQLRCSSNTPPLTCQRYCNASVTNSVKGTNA

T2: hu (human) BCMA ECD His (ACRO, BCA-H522y) (human, UniProt Q02223 1-54)
T2 construct: extracellular domain; Bought reagent (ACRO BCA-H522y); also called hu BCMA ECD His; not shown: His tag
T2 sequence (looked up): T1 sequence (looked up)

T3: human BCMA (full-length, on cells) (human, UniProt Q02223 1-184)
T3 construct: whole, on cells; also called K562-BCMA; CHO-BCMA
T3 sequence (looked up): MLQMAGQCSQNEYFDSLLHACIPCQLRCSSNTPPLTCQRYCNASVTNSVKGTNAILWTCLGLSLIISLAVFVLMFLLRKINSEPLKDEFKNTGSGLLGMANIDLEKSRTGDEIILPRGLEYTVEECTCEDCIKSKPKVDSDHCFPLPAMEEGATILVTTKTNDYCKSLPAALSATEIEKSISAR

B1: 5E2 (antibody, V domains shown)
VH: EVQLQQSGPELIKPGASVKMSCKASGYTFTSYVVHWVKQKPGQGLEWIGYIIPYNDDTKYNEKFKGKATLTSDKSSSTAYMELSSLTSEDSAVYYCARWDYDDGYFDYWGQGTTLTVSS
VL: DVVMTQTPLSLPVTLGDQASISCRSSQSLLHSNGNTYLHWYLQKPGQSPKLLIYKVSNRFSGVPDRFSGSGSGTDFTLKISRVEAEDLGVYFCSQITHIPFTFGSGTKLEIKR
notes: Mouse hybridoma antibody; It was amplified with primers for mouse IgG1 and detected with anti-mouse IgG in Embodiment 2; In Embodiment 5 it is called mVH-mVL ('a murine antibody before humanization'); also called BCMA antibody 5E2; mVH-mVL
B2: hu VH1-VL3 (antibody, V domains shown)
VH: B1 VH with E1Q, Q5V, P9A, L11V, I12K, K38R, K40A, T87R, S91T, L115V
VL: DIVMTQTPLSLSVTPGQPASISCKSSQSLLHSNGNTYLHWYLQKPGQPPQLLIYKVSNRFSGVPDRFSGSGSGTDFTLKISRVEAEDVGVYYCSQITHIPFTFGQGTKLEIKR
notes: Humanized 5E2; also called humanized BCMA antibody hu VH1-VL3
B3: hu VH1-VL1 (antibody, V domains shown)
VH: B1 VH with E1Q, Q5V, P9A, L11V, I12K, K38R, K40A, T87R, S91T, L115V
VL: DVVMTQSPLSLPVTLGQPASISCRSSQSLLHSNGNTYLHWYLQKPGQSPQLLIYKVSNRFSGVPDRFSGSGSGTDFTLKISRVEAEDVGVYFCSQITHIPFTFGQGTKLEIK
notes: Humanized 5E2; also called humanized BCMA antibody hu VH1-VL1
B4: hu VH2-VL1 (antibody, V domains shown)
VH: QVQLVQSGAEVKKPGASVKMSCKASGYTFTSYVVHWVRQAPGQGLEWIGYIIPYNDDTKYNEKFKGRVTLTSDKSTSTAYMELSSLRSEDTAVYYCARWDYDDGYFDYWGQGTTVTVSS
VL: B3 VL
notes: Humanized 5E2; also called humanized BCMA antibody hu VH2-VL1
B5: hu VH1-VL2 (antibody, V domains shown)
VH: B4 VH with R67K, V68A, T76S
VL: B3 VL with S7T, P12S, L15P, R24K
notes: Humanized 5E2; also called humanized BCMA antibody hu VH1-VL2
B6: R0317 (C11D5.3 BCMA mouse monoclonal antibody) (antibody, V domains shown)
VH: QIQLVQSGPELKKPGETVKISCKASGYTFTDYSINWVKRAPGKGLKWMGWINTETREPAYAYDFRGRFAFSLETSASTAYLQINNLKYEDTATYFCALDYSYAMDYWGQGTSVTVSS
VL: DIVLTQSPASLAMSLGKRATISCRASESVSVIGAHLIHWYQQKPGQPPKLLIYLASNLETGVPARFSGSGSGTDFTLTIDPVEEDDVAIYSCLQSRIFPRTFGGGTKLEIK

How the values were obtained:
[1] = biological target: T1, hBCMA ECD hFc (ACRO, BC7-H5254); test: ELISA; hBCMA ECD hFc coated at 2 µg/ml, antibody in 3-fold dilutions
From the text: R0317 is a C11D5.3BCMA mouse monoclonal antibody, and its specific sequence and information may be found publicly.

[2] = biological target: T2, hu (human) BCMA ECD His (ACRO, …); test: ELISA; hu BCMA ECD His coated at 2 µg/mL, antibody in 3-fold dilutions
[3] = biological target: T3, human BCMA (full-length, on cells); test: flow cytometry on K562, H929, RPMI8226 and K562-BCMA cells; PE goat anti-mouse IgG1
From the text: The specificity of BCMA antibody of the present disclosure is detected by FACs. A human BCMA full-length gene is synthesized in vitro, and a restriction enzyme cutting site is introduced, the synthesized human BCMA full-length gene is inserted into a lentiviral packaging plasmid vector (PCDHF) by double enzyme digestion, and lentiviral packaging (the specific operation steps are generally 4 plasmid lentiviral packaging steps, please refer to a section about lentiviral packaging on an official website of Jikai Gene in detail) is performed. The prepared lentivirus is infected with a K562 cell (ATCC, article number: CCL-243) to construct a K562-BCMA cell, and the cells are single-clone-picked and identified, to obtain a stable cell line K562-BCMA stably expressing BCMA. The 5E2 and 5F4 antibodies are respectively incubated with K562, H929, RPMI8226 and K562-BCMA cells for 30 min at 4° C., after that, it is washed twice with PBS, then a secondary antibody PE goat anti-mouse IgG1 (Biolegend, B288920) is added, and incubated at 4° C. for 30 min, after that, it is washed twice with PBS. Then, the detection is performed by using a Beckman Coulter flow cytometry. Detection results are shown in FIG. 5 below, and 5E2 and 5F4 may specifically bind to the cells of which the BCMA expression is positive.

[4] = biological target: T2, hu (human) BCMA ECD His (ACRO, …); test: ELISA; hu BCMA ECD His coated at 2 µg/mL, antibody from 20 µg/mL in 3-fold dilutions
From the text: Herein, mVH-mVL is a murine BCMA antibody, and is a murine antibody before humanization.

[5] = biological target: T3, human BCMA (full-length, on cells); test: flow cytometry on K562-BCMA and CHO-BCMA cells; antibody from 30 µg/ml in 3-fold dilutions, APC anti-human IgG Fc
From the text: A K562 cell (ATCC® CCL-243™) is a human chronic myeloid leukemia cell, and a CHO cell (ATCC® CRL-12023™) is a Chinese hamster ovary cell. The K562 cells and the CHO cells are respectively infected with lentiviruses containing a full-length sequence of human BCMA, and after being infected, a monoclone is picked, to obtain a K562-BCMA cell line and a CHO-BCMA cell line stably expressing BCMA, and the affinity (EC50) of the four humanized antibodies to K562-BCMA and CHO-BCMA is detected respectively. A specific detection method is as follows: cells are harvested, washed once with PBS, and resuspended with PBS according to 2E+5 cells/200 μL. The four BCMA humanized antibodies are diluted in a 3-fold gradient with 1% BSA, the concentration of the former gradient antibody is 3 times greater than that of the latter gradient antibody, (the initial concentration of the antibody is 30 μg/ml, and there is a total of 11 gradients), and then it is respectively incubated with the cells at 4° C. for 30 min. After that, it is incubated with APC anti-human IgG Fc Antibody (Biolegend, 409306) for 30 min at 4° C., washed twice with 1x PBS, and detected by a Beckman Coulter (model number: CytoFLEX) flow cytometry. […] The affinity EC₅₀ of hu VH1VL2 to K562-BCMA is slightly weaker. However, the affinity EC₅₀ of hu VH1-VL2 and CHO-BCMA is at the same level as the other three humanized antibodies, and the expression abundance of the four humanized antibodies and the murine BCMA antibody binding to CHO-BCMA is in the order of m VH-m VL, hu VH1-VL1, hu VH2-VL1, hu VH1-VL2, and hu VH1-VL3 from high to low.

[6] = biological target: T3, human BCMA (full-length, on cells); test: flow cytometry on RPMI8226 and H929 myeloma cells; antibody from 10 µg/ml in 3-fold dilutions, PE anti-mouse IgG
Protocol: A RPMI8226 cell (ATCC® CRM-CCL-155™) is a human multiple myeloma peripheral blood B lymphocyte, and a H929 cell (ATCC® CRL-9068™) is a human multiple myeloma bone marrow B lymphocyte. A specific detection method is as follows: cells are harvested, washed with PBS once, and then resuspend with PBS according to 2E+5 cells/200 μl. The three antibodies are diluted in a gradient (the initial concentration of the antibody is 10 μg/ml, it is diluted with 1% BSA in 3-fold, and there is a total of 9 gradients), and then incubated with the cells for 30 min at 4° C. After that, it is incubated with a PE-labeled anti-mouse IgG secondary antibody (Biolegend, B288920), washed twice, and detected by a Beckman Coulter (model number: CytoFLEX) flow cytometry.

Binder | binding result [1] | binding result [2] | binding result [3] | binding result [4] | binding result [5] | binding result [6]
B1 | binds | binds | binds |  |  | 
B2 |  |  |  | binds | binds | 
B3 |  |  |  | binds | binds | 
B4 |  |  |  | binds | binds | 
B5 |  |  |  | binds | binds | 
B6 | binds |  |  |  |  | binds
